For this experiment, the target named is Escherichia coli heat-labile enterotoxin holotoxin (human enterotoxigenic strain PE0415), nicked and reduced (E. coli (human enterotoxigenic strain PE0415)) (UniProt P43530). The experiment in a line: ELISA; […] (1 ug/mL) […] (20 ug/mL, […]) for 1 h at 37 C; […]. A general note: In an ELISA, binding on a coated surface is turned into a signal by an enzyme label.

Consider “protein disulfide isomerase, reduced (from UniProt P07237 18-508) (enzyme)”, for which the percent of A1 released from the holotoxin by PDI worked out at 7%.

For the origin of these results see paper PMC8741891.
